Measured values published in patent publication US11180770B2, “HPPD variants and methods of use” (BASF Agricultural Solutions Seed US LLC, priority 2017, dated 2021).
Where a chain is given by its changes, count along the chain named.

B1: 59 (protein)
chain: MADLYENPMGLMGFEFIEFASPTPGTLEPIFEIMGFTKVATHRSKNVHLYRQGEINLILNNEPNSIASYFAAEHGPSVCGMAFRVKDSQKAYNRALELGAQPIHIDTGPMELNLPAIKGIGGAPLYLIDRFGEGSSIYDIDFVYLEGVERNPVGAGLKVIDHLTHNVYRGRMVYWANFYEKLFNFREARYFDIKGEYTGLTSKAMSAPDGMIRIPLNEESSKGAGQIEEFLMQFNGEGIQHVAFLTDDLVKTWDALKKIGMRFMTAPADSYYEMLEGRLPDHGEPVDQLQARGILLDGSSVEGDKRLLLQIFSETLMGPVFFEFIQRKGDDGFGPDSFKVLFEQKERDQVRRGVLTAD
modifications: mutant HPPD polypeptide
B2: 71 (protein)
chain: B1 chain with P215L, A268P, S270T, D336F, S337N, V340E, Q344S, K345I
modifications: mutant HPPD polypeptide
B3: 63 (protein)
chain: B1 chain with R213K, P215A, D336H, K345I
modifications: mutant HPPD polypeptide
B4: 4 (protein)
chain: B1 chain with A268G, S270T, Q344S, K345I
modifications: mutant HPPD polypeptide
B5: 65 (protein)
chain: B1 chain with T315R, D336H, Q344S, K345M
modifications: mutant HPPD polypeptide
B6: 64 (protein)
chain: B1 chain with D336H, K345M
modifications: mutant HPPD polypeptide
B7: 67 (protein)
chain: B1 chain with R213K, T315R, D336H, K345M
modifications: mutant HPPD polypeptide
B8: 66 (protein)
chain: B1 chain with R213K, D336H, K345M
modifications: mutant HPPD polypeptide
B9: 3 (protein)
chain: B1 chain with S270T, Q344S, K345I
modifications: mutant HPPD polypeptide
B10: 6 (protein)
chain: B1 chain with S270N, Q344S, K345I
modifications: mutant HPPD polypeptide
B11: 14 (protein)
chain: B1 chain with A268P, S270N, Q344S, K345V
modifications: mutant HPPD polypeptide
B12: 68 (protein)
chain: B1 chain with T315Q, D336H, K345M
modifications: mutant HPPD polypeptide
B13: 13 (protein)
chain: B1 chain with A268G, S270N, Q344S, K345V
modifications: mutant HPPD polypeptide
B14: 2 (protein)
chain: B1 chain with A268P, S270T, D336W, S337N, K339A, V340Q, Q344S, K345I
modifications: mutant HPPD polypeptide
B15: 10 (protein)
chain: B1 chain with A268G, S270T, Q344S, K345V
modifications: mutant HPPD polypeptide
B16: 11 (protein)
chain: B1 chain with A268P, S270T, Q344S, K345V
modifications: mutant HPPD polypeptide
B17: 12 (protein)
chain: B1 chain with S270N, Q344S, K345V
modifications: mutant HPPD polypeptide
B18: 69 (protein)
chain: B1 chain with T315R, D336H, K345M
modifications: mutant HPPD polypeptide
B19: 9 (protein)
chain: B1 chain with S270T, Q344S, K345V
modifications: mutant HPPD polypeptide
B20: 5 (protein)
chain: B1 chain with A268P, S270T, Q344S, K345I
modifications: mutant HPPD polypeptide
B21: 8 (protein)
chain: B1 chain with A268P, S270N, Q344S, K345I
modifications: mutant HPPD polypeptide
B22: 7 (protein)
chain: B1 chain with A268G, S270N, Q344S, K345I
modifications: mutant HPPD polypeptide
B23: 62 (protein)
chain: B1 chain with D336H, Q344S, K345M
modifications: mutant HPPD polypeptide
B24: 60 (protein)
chain: B1 chain with M172I, V173D, Q344S
modifications: mutant HPPD polypeptide
B25: 70 (protein)
chain: B1 chain with R213K, T315Q, D336H, K345M
modifications: mutant HPPD polypeptide
B26: 61 (protein)
chain: B1 chain with D336H, Q344S, K345I
modifications: mutant HPPD polypeptide

Test system: HPPD polypeptides
Assay: coupled HPPD activity assay: turnover and residual turnover in crude extracts
Format: biochemical, Pseudomonas fluorescens
Details: for Residual turnover [%]: 100 μM Cmpd. 1, signal change with inhibitor divided by signal change without inhibitor; for Turnover: absence of Cmpd. 1, kinetic changes in absorbance (OD) at 320 nm, 30 min; for Turnover / Residual turnover: high substrate concentration; for Residual turnover: presence of 100 μM Cmpd. 1, changes in absorbance (OD) at 320 nm

Molecule | Residual turnover [%] | Turnover | Residual turnover
B1 | 56 | 0.131 | 0.074
B2 | – | 0.044 | 0.022
B3 | 68 | 0.23 | 0.156
B4 | 44 | 0.126 | 0.055
B5 | 54 | 0.327 | 0.177
B6 | 47 | 0.242 | 0.114
B7 | 64 | 0.335 | 0.215
B8 | 56 | 0.336 | 0.187
B9 | 64 | 0.096 | 0.061
B10 | 50 | 0.165 | 0.082
B11 | 33 | 0.188 | 0.062
B12 | 64 | 0.346 | 0.223
B13 | – | 0.024 | –
B14 | – | 0.060 | 0.026
B15 | 56 | 0.125 | 0.070
B16 | 44 | 0.160 | 0.071
B17 | 50 | 0.115 | 0.058
B18 | 66 | 0.36 | 0.237
B19 | 52 | 0.102 | 0.053
B20 | 38 | 0.157 | 0.059
B21 | 50 | 0.107 | 0.054
B22 | 42 | 0.149 | 0.063
B23 | 37 | 0.308 | 0.115
B24 | 45 | 0.103 | 0.046
B25 | 71 | 0.338 | 0.240
B26 | 40 | 0.229 | 0.091
